From patent US20260226152A1 (GlaxoSmithKline, published 2026)
Where two headings read alike, the source gives them in different places.

Key:
Human IL-18 [1] = biological target: T1, Human IL-18 (human, UniProt Q14116 37-193); assay: cell-based or functional assay
T1 sequence: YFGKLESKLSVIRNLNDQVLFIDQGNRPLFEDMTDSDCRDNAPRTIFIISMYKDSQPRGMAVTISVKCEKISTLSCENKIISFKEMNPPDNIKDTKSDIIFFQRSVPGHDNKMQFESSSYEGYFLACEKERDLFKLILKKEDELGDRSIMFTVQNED

Human IL-18 [2] = biological target: T1, Human IL-18; assay: SPR (Biacore), antibody captured on Protein A/G, cytokine as analyte, 25 C, 1:1 fit, n=1
Protocol: (§1) A heterodimeric bsAb, alongside anti-IL-18 and anti-IL-23 common light chain control bispecific antibodies, were assessed for binding to human and cyno IL-18 and IL-23, using the Biacore 8K and T200 (Cytiva) surface plasmon resonance (SPR) instruments. All reagents were generated recombinantly in-house with the exception of Rhesus monkey IL-18 which was purchased from R&D systems (Cat #2548-RM-025/CF). Rhesus and cynomolgus monkey amino acid sequences are identical. Therefore, the protein will be referred to as cynomolgus monkey IL-18.
(§2) Heterodimeric bsAb, anti-IL-18 and anti-IL-23 common light chain bispecific control molecules were assessed for binding to recombinant human and cynomolgus monkey IL-18 and IL-23 using the Biacore 8K and T200 (Cytiva) SPR instruments. The antibodies were captured onto Protein A/G, which was immobilised onto flow cell 2 of 8 channels (Biacore 8K) or flow cells 2, 3 and 4 (Biacore T200) of a CM5 series S sensor chip by primary amine coupling. The IL-18 or IL-23 analytes were passed over the captured antibodies at varying concentrations between 0.04-25 nM. The association phase was for 240 seconds at 30 μl/min, followed by a dissociation step of up to 1200 seconds. A 0 nM (i.e., buffer alone) injection was used to double reference the binding curves. Regeneration of the chip surface between cycles was carried out using 50 mM NaOH. The assay was run at 25° C. in HBS-EP⁺ buffer. Biacore 8K control software version 3.0 was used to run the experiment. Data was analysed using Biacore 8K Insight evaluation software version 3.0. Biacore T200 control software version 1.0 was used to run the experiment. Data was analysed using Biacore T200 evaluation software version 2.0. Affinities and kinetics were determined using the 1:1 kinetic fit inherent to the software where possible. All affinity values generated using both instruments were combined to determine geometric mean values.

Human IL-23 [3] = biological target: T2, Human IL-23 (human, UniProt Q9NPF7 20-189; P29460 23-328); assay: SPR (Biacore), antibody captured on Protein A/G, cytokine as analyte, 25 C
T2 construct: Disulphide-linked p19/p40 heterodimer, recombinant, made in-house; also called recombinant human IL-23; rhIL-23
T2 sequence 1: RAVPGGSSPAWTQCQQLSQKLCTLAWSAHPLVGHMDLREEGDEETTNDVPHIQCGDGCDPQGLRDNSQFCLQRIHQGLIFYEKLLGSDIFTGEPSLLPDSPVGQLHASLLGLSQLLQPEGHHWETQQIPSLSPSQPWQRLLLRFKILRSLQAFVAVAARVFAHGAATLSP
T2 sequence 2: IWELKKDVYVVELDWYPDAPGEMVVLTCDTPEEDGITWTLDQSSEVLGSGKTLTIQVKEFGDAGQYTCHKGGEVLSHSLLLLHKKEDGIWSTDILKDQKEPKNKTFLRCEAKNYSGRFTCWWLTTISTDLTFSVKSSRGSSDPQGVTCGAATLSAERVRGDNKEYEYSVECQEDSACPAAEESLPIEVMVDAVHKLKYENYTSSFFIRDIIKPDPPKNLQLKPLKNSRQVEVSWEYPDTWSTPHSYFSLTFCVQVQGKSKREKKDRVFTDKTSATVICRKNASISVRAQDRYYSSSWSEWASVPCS
Protocol: as §1, §2

Cynomolgus monkey IL-18 [4] = biological target: T3, Cynomolgus monkey IL-18 (Rhesus monkey (identical to cynomolgus …, UniProt Q9BGI5 37-193)); assay: cell-based or functional assay
T3 sequence: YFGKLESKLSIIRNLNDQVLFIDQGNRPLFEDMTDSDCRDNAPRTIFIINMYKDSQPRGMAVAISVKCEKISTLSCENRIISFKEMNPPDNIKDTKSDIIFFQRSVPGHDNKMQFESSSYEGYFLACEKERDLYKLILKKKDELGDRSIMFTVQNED

Human IL-18 [5] = biological target: T1, Human IL-18; assay: cell-based or functional assay; remark: listed apart in the source
Human IL-18 [6] = biological target: T1, Human IL-18; assay: SPR (Biacore 8K/T200), antibody captured on Protein A/G, cytokine as analyte, 25 C, geometric mean of n=3-5
Protocol: as §1, §2

Cynomolgus monkey IL-18 [7] = biological target: T3, Cynomolgus monkey IL-18; assay: as above
Protocol: as §1, §2

Human IL-18 [8] = biological target: T1, Human IL-18; assay: cell-based or functional assay; remark: listed apart in the source
Human IL-23 [9] = biological target: T2, Human IL-23; assay: cell-based or functional assay
Human IL-23 [10] = biological target: T2, Human IL-23; assay: cell-based or functional assay; remark: listed apart in the source
Human IL-23 [11] = biological target: T2, Human IL-23; assay: cell-based or functional assay; remark: listed apart in the source
Human IL-23 [12] = biological target: T2, Human IL-23; assay: SPR (Biacore 8K/T200), antibody captured on Protein A/G, cytokine as analyte, 25 C, geometric mean of n=3-5
Protocol: as §1, §2

Cynomolgus monkey IL-23 = biological target: T4, Cynomolgus monkey IL-23 (cynomolgus monkey); assay: as above
T4 construct: also called Cyno IL-23
Protocol: as §1, §2

Human IL-18 [13] = biological target: T1, Human IL-18; assay: SPR (Biacore), antibody captured on Protein A/G, cytokine as analyte, 25 C
Protocol: as §1, §2

Cynomolgus monkey IL-18 [14] = biological target: T3, Cynomolgus monkey IL-18; assay: as above
Protocol: as §1, §2

B1: IL-18 control 5 (antibody, V domains shown)
VH: QVQLVQSGAEVKKPGASVKVSCKVSGEISTGYYFHWVRQAPGKGLEWMGRIDPEDDSTKYAERFKDRVTMTEDTSTDTAYMELSSLRSEDTAVYYCTTWRIYRDSSGRPFYVMDAWGQGTLVTVSS
VL: DIQMTQSPSSVSASVGDRVTITCLASEDIYTYLTWYQQKPGKAPKLLIYGANKLQDGVPSRFSGSGSGTDYTLTISSLQPEDFATYYCLQGSKFPLTFGQGTKLEIK
notes: Anti-IL-18 mAb plus Het-mAb Fc mutations of Heterodimeric bsAbs 1-4 and silencing (LAGA) mutations
IC50 (pM, Mean), neutralisation of human IL-18-induced IFNγ secretion by KG-1 cells (Human IL-18 [1]): 52.5 pM
pIC50 (GeoMean), neutralisation of human IL-18-induced IFNγ secretion by KG-1 cells (Human IL-18 [1]): 10.3
Kd (Human IL-18 [2]): < 10 pM
binding result (Human IL-23 [3]): no binding (tested: 0.04-25 nM analyte)

B2: IL-18 control 1 (antibody, V domains shown)
VH: QVQLVQSGAEVKKPGASVKVSCKVSGEISTGYYFHWVRQAPGKGLEWMGRIDPEDDSTKYAERFKDRVTMTEDTSTDTAYMELSSLRSEDTAVYYCTTWRIYRDSSGRPFYVMDAWGQGTLVTVSS
VL: DIQMTQSPSSVSASVGDRVTITCLASEDIYTYLTWYQQKPGKAPKLLIYGANKLQDGVPSRFSGSGSGTDYTLTISSLQPEDFATYYCLQGSKFPLTFGQGTKLEIK
notes: Anti-IL-18 mAb plus Het-mAb Fc mutations of Heterodimeric bsAbs 1-4, silencing (LAGA) and half-life extending (YTE) mutations; also called anti-IL-18 control 1
IC50 (pM, Mean), neutralisation of cynomolgus IL-18-induced IFNγ secretion by KG-1 cells (Cynomolgus monkey IL-18 [4]): 53.7 pM
pIC50 (GeoMean), neutralisation of cynomolgus IL-18-induced IFNγ secretion by KG-1 cells (Cynomolgus monkey IL-18 [4]): 10.3
IC50 nM, inhibition of LPS + IL12-induced IFN-γ in human whole blood (Human IL-18 [5]): 5.5 nM
pIC50, inhibition of LPS + IL12-induced IFN-γ in human whole blood (Human IL-18 [5]): 8.3
Kd (Human IL-18 [6]): 67 pM
Kd (Cynomolgus monkey IL-18 [7]): 64 pM
IC50 (pM, Mean), neutralisation of human IL-18-induced IFNγ secretion by KG-1 cells (Human IL-18 [8]): 52.5 pM
pIC50 (GeoMean), neutralisation of human IL-18-induced IFNγ secretion by KG-1 cells (Human IL-18 [8]): 10.3
binding result (Human IL-23 [3]): no binding (tested: 0.04-25 nM analyte)

B3: IL-23 control 1 (antibody, V domains shown)
VH: QVQLVQSGAEVKKPGSSVKVSCKASGYTFTDQTIHWMRQAPGQGLEWIGYIYPRDDSPKYNENFKGKVTITADKSTSTAYMELSSLRSEDTAVYYCAIPDRSGYAWFIYWGQGTLVTVSS
VL: DIQMTQSPSSLSASVGDRVTITCKASRDVAIAVAWYQQKPGKVPKLLIYWASTRHTGVPSRFSGSGSRTDFTLTISSLQPEDVADYFCHQYSSYPFTFGSGTKLEIK
notes: Anti-IL-23 (risankizumab) mAb plus Het-mAb Fc mutations of Heterodimeric bsAbs 1-4, silencing (LAGA) and half-life extending (YTE) mutations; also called anti-IL-23 control 1; risankizumab variable domains
IC50, inhibition of IL-23-induced pSTAT3 in T cells of human whole blood (Human IL-23 [9]): 163 pM
pIC50, inhibition of IL-23-induced pSTAT3 in T cells of human whole blood (Human IL-23 [9]): 9.8
IC50 pM, inhibition of human IL-23-induced mouse IL-17A secretion in mouse splenocytes (Human IL-23 [10]): 41.7 pM
pIC50 (M), inhibition of human IL-23-induced mouse IL-17A secretion in mouse splenocytes (Human IL-23 [10]): 10.4
pIC50 (GeoMean), neutralisation of cynomolgus IL-18-induced IFNγ secretion by KG-1 cells (Cynomolgus monkey IL-18 [4]): < 8.48
IC50 pM (Geomean), neutralisation of human IL-23-induced pSTAT3 in DB cells (MSD) (Human IL-23 [11]): 16.6 pM
pIC50 (Geomean), neutralisation of human IL-23-induced pSTAT3 in DB cells (MSD) (Human IL-23 [11]): 10.8
Kd (Human IL-23 [12]): 348 pM
Kd (Cynomolgus monkey IL-23): 204 pM
pIC50 (GeoMean), neutralisation of human IL-18-induced IFNγ secretion by KG-1 cells (Human IL-18 [8]): < 8.48
binding result (Human IL-18 [13]): no binding (tested: 0.04-25 nM analyte)
binding result (Cynomolgus monkey IL-18 [14]): no binding (tested: 0.04-25 nM analyte)
